Data reported in paper PMC6612524.

Molecular target: human plasma fibronectin (human)
Experiment: ITC; 35 μM peptide titrated into the cell with 2.7 μM human plasma fibronectin; PBS pH 7.4; 25 °C; one set of sites model; duplicates

Chain of human plasma fibronectin (human) (P02751 other isoform, or with tags, fused parts or gaps): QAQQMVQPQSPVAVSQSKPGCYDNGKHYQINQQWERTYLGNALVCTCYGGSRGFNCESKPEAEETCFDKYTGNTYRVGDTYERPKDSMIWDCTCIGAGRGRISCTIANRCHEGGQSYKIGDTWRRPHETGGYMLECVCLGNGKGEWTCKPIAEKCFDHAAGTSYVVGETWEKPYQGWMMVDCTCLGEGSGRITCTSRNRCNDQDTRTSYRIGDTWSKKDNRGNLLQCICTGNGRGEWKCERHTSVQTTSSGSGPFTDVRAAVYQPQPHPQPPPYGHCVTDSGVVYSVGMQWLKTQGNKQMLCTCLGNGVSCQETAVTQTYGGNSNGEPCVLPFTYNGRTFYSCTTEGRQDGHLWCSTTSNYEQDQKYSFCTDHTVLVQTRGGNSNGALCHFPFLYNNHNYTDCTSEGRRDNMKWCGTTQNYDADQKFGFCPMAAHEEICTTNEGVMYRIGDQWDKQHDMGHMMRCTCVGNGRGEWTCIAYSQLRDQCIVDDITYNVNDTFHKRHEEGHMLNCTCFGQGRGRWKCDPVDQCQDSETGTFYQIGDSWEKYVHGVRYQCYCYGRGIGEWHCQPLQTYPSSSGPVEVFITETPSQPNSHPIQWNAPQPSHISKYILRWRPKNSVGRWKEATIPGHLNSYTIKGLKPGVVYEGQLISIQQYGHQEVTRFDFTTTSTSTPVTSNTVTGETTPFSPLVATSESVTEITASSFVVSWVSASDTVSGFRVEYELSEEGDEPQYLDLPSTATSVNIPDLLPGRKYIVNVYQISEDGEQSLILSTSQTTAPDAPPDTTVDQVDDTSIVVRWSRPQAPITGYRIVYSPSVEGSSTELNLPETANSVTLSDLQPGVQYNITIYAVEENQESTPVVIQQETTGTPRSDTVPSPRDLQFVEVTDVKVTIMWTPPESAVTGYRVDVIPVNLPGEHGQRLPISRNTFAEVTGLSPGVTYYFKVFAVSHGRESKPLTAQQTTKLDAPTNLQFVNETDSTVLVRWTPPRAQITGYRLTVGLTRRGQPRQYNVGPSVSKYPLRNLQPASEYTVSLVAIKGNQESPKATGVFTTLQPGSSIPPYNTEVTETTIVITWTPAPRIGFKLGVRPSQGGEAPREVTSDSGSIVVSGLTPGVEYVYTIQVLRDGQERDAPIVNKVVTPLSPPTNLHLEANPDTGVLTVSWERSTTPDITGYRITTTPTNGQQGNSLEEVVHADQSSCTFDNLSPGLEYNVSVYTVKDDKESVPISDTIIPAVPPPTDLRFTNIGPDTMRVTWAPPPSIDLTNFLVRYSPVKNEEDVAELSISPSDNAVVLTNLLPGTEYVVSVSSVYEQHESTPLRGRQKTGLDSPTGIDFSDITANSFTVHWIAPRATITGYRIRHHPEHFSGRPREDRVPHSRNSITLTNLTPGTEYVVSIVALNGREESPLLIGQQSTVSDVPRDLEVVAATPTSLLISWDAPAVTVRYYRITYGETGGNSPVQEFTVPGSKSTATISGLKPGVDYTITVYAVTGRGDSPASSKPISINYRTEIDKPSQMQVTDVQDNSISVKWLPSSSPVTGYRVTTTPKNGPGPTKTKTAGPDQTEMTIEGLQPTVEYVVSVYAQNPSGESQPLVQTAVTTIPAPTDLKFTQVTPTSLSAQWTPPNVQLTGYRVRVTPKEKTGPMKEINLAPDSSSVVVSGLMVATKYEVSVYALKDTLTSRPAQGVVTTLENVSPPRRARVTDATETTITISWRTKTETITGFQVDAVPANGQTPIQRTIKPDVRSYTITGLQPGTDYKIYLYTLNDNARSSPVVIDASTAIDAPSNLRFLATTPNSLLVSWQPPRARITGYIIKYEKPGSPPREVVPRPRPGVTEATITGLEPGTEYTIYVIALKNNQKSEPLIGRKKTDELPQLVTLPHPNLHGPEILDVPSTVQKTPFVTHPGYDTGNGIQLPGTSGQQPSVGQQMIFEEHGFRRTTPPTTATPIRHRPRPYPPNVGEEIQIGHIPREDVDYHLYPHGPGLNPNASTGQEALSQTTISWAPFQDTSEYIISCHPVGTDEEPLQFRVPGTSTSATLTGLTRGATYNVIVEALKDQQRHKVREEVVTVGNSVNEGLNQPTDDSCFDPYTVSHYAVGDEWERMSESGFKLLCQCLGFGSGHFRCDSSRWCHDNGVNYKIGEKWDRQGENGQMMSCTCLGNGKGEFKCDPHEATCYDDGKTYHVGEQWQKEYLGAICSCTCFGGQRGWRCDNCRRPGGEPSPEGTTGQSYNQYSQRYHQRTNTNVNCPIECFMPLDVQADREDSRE

Row | Substance | Kd | dH | stoichiometry N
1 | Functional Upstream Domain (FUD) peptide (peptide; other documents disagree on this pair) | 4.3 nM | -33 kcal/mol | 1.47
2 | singly sulfo-Cy5 labeled FUD peptide (peptide; other documents disagree on this pair) | 4.7 nM | -35.8 kcal/mol | 1.48
3 | sulfo-Cy5 labeled 20 kDa PEG-FUD (peptide; other documents disagree on this pair) | 13 nM | -35 kcal/mol | 1.5
